# Assay results reported in article PMC11734896, “Engineering dimer mutants of human geranylgeranyl pyrophosphate synthase” (PLOS ONE, 2025).
# Tests used:
# [1] = biological target: T1, geranylgeranyl pyrophosphate synthase (GGPPS) (Homo sapiens, UniProt O95749, Y246D/C247L)
# T1 construct: gene GGPS1
# [2] = biological target: the molecule itself; experiment: SEC; HiLoad 16/600 Superdex 200 step of the purification; 10 mM HEPES pH 7.5, 500 mM NaCl, 2 mM β-mercaptoethanol, 5% glycerol; mass estimated from a standard curve; self-association
# [3] = biological target: the molecule itself; experiment: differential scanning fluorimetry (Tm) + native gel or EMSA; oligomeric state inferred from Tm without inhibitor (10 mM HEPES pH 7.5, 100 mM NaCl, 3 mM MgCl2, 0.5 mM TCEP, 5 μM protein), supported by native-PAGE (S2 Fig); self-association
Molecule,stoichiometry N [2],stoichiometry N [3],further results
"C=C(C)CCO[P@@](=O)(O)OP(=O)(O)O [IPP, isopentenyl pyrophosphate]",,,"X-ray crystal structure, 2.1 Å [1]: clearly indicated the presence of IPP within its anticipated binding site in one subunit of the dimer mutant"
"wild-type human geranylgeranyl pyrophosphate synthase (enzyme, geranylgeranyl pyrophosphate synthase (GGPPS), human; theoretical subunit mass printed as 37,424 Da; The printed subunit mass of 37,424 Da is larger than that of the untagged natural protein as I recall it, so a tag was probably kept; also called GGPPS; WT GGPPS) MEKTQETVQRILLEPYKYLLQLPGKQVRTKLSQAFNHWLKVPEDKLQIIIEVTEMLHNASLLIDDIEDNSKLRRGFPVAHSIYGIPSVINSANYVYFLGLEKVLTLDHPDAVKLFTRQLLELHQGQGLDIYWRDNYTCPTEEEYKAMVLQKTGGLFGLAVGLMQLFSDYKEDLKPLLNTLGLFFQIRDDYANLHSKEYSENKSFCEDLTEGKFSFPTIHAIWSRPESTQVQNILRQRTENIDIKKYCVHYLEDVGSFEYTRNTLKELEAKAYKQIDARGGNPELVALVKHLSKMFKEENE",6,,
"human GGPPS Y246D/C205A mutant (enzyme, also called DA; DA mutant) MEKTQETVQRILLEPYKYLLQLPGKQVRTKLSQAFNHWLKVPEDKLQIIIEVTEMLHNASLLIDDIEDNSKLRRGFPVAHSIYGIPSVINSANYVYFLGLEKVLTLDHPDAVKLFTRQLLELHQGQGLDIYWRDNYTCPTEEEYKAMVLQKTGGLFGLAVGLMQLFSDYKEDLKPLLNTLGLFFQIRDDYANLHSKEYSENKSFAEDLTEGKFSFPTIHAIWSRPESTQVQNILRQRTENIDIKKDCVHYLEDVGSFEYTRNTLKELEAKAYKQIDARGGNPELVALVKHLSKMFKEENE",,2,
"human GGPPS Y246D/C247L mutant (enzyme, also called DL; DL mutant) MEKTQETVQRILLEPYKYLLQLPGKQVRTKLSQAFNHWLKVPEDKLQIIIEVTEMLHNASLLIDDIEDNSKLRRGFPVAHSIYGIPSVINSANYVYFLGLEKVLTLDHPDAVKLFTRQLLELHQGQGLDIYWRDNYTCPTEEEYKAMVLQKTGGLFGLAVGLMQLFSDYKEDLKPLLNTLGLFFQIRDDYANLHSKEYSENKSFCEDLTEGKFSFPTIHAIWSRPESTQVQNILRQRTENIDIKKDLVHYLEDVGSFEYTRNTLKELEAKAYKQIDARGGNPELVALVKHLSKMFKEENE",2,,
"human GGPPS Y246K/C247L mutant (enzyme, also called KL; KL mutant) MEKTQETVQRILLEPYKYLLQLPGKQVRTKLSQAFNHWLKVPEDKLQIIIEVTEMLHNASLLIDDIEDNSKLRRGFPVAHSIYGIPSVINSANYVYFLGLEKVLTLDHPDAVKLFTRQLLELHQGQGLDIYWRDNYTCPTEEEYKAMVLQKTGGLFGLAVGLMQLFSDYKEDLKPLLNTLGLFFQIRDDYANLHSKEYSENKSFCEDLTEGKFSFPTIHAIWSRPESTQVQNILRQRTENIDIKKKLVHYLEDVGSFEYTRNTLKELEAKAYKQIDARGGNPELVALVKHLSKMFKEENE",,2,
